The target in assay [1] is A2Moo (ovomacroglobulin), the Xenopus laevis egg Alpha-2-Macroglobulin homolog (Xenopus laevis). Description: cryo-EM structure.
Assay [2] has the same target. Description: cryo-EM structure. The source holds these as a separate data set.

From PMC8897276 come the findings set out here.

Read-outs that look alike come from different tables or passages of the source.

As for “A2Moo (ovomacroglobulin), the Xenopus laevis egg Alpha-2-Macroglobulin homolog (from UniProt A0A8J1L4C4 1-1441) (natural protein)”, the stoichiometry N in assay [1] and in assay [2] was 4 throughout.
